Laboratory results reported in article PMC3429349 (Science (New York, N.Y.), 2009).

Molecular target: the molecule itself

B1: HSF1 K80Q (natural protein, human, UniProt Q00613 1-529, looked up)
chain: MDLPVGPGAAGPSNVPAFLTKLWTLVSDPDTDALICWSPSGNSFHVFDQGQFAKEVLPKYFKHNNMASFVRQLNMYGFRQVVHIEQGGLVKPERDDTEFQHPCFLRGQEQLLENIKRKVTSVSTLKSEDIKIRQDSVTKLLTDVQLMKGKQECMDSKLLAMKHENEALWREVASLRQKHAQQQKVVNKLIQFLISLVQSNRILGVKRKIPLMLNDSGSAHSMPKYSRQFSLEHVHGSGPYSAPSPAYSSSSLYAPDAVASSGPIISDITELAPASPMASPGGSIDERPLSSSPLVRVKEEPPSPPQSPRVEEASPGRPSSVDTLLSPTALIDSILRESEPAPASVTALTDARGHTDTEGRPPSPPPTSTPEKCLSVACLDKNELSDHLDAMDSNLDNLQTMLSSHGFSVDTSALLDLFSPSVTVPDMSLPDLDSSLASIQELLSPQEPPRPPEAENSSPDSGKQLVHYTAQPLFLLDPGSVDTGSNDLPVLFELGEGSYFSEGDGFAEDPTISLLTGSEPPKAKDPTVS
- stoichiometry N: 3
